Measurements as given in US20240254227A1 (Alector, published 2024).

Key:
murine CD300A-Fc = target: T1, murine CD300A-Fc (mouse); experiment: SPR (Carterra LSA), antibody immobilised
T1 construct: hIgG1-Fc fusion; the entry is the whole fusion chain; also called mCD300A; Mouse CD300A-Fc
Description: (§1) In addition to the screening of antibodies for cross-reactivity by FACS analysis, surface plasmon resonance (SPR) analysis was used to determine the binding of antibodies to recombinant huCD300 and muCD300 family members (orthologs) conjugated to an Fc (human CD300A-Fc SEQ ID NO:144; human CD300LB-Fc SEQ ID NO:145; human CD300C-Fc SEQ ID NO: 146; human CD300D-Fc SEQ ID NO: 147; human CD300E-Fc SEQ ID NO: 148; human CD300F-Fc SEQ ID NO: 149; murine CD300A-Fc SEQ ID NO: 150; murine CD300LB-Fc SEQ ID NO:151; murine CD300C-Fc SEQ ID NO: 152; murine CD300D-Fc SEQ ID NO: 153, and murine CD300E-Fc SEQ ID NO: 154).
(§2) Binding of mouse anti-CD300LB IgG1 antibodies of the present disclosure to human and murine CD300 orthologs were evaluated by surface plasmon resonance (SPR) using a Carterra LSA instrument (Carterra, Salt Lake City, UT). […] A HC200M sensor chip (Carterra) was activated using the single channel flow cell with a 7-minute injection of a 1:1:1 mixture of 100 mM MES pH 5.5, 100 mM sulfo-NHS, 400 mM EDC (all reconstituted in MES pH 5.5; 100 μL of each mixed in vial immediately before running assay). After switching to the multi-channel array flow cell, the antibodies were injected over the activated chip in a 96-spot array for 10 minutes. The remaining unconjugated active groups on the chip were then blocked by injecting 1M Ethanolamine pH 8.5 (Carterra) for 7 minutes using the single channel flow cell. After priming with running buffer (HBS-TE, Carterra) with 0.5 mg/ml BSA (Sigma), the immobilized anti-CD300LB antibodies were tested for their ability to bind human and mouse recombinant CD300LB extracellular domains. Human CD300 family members and mouse CD300A were hIgG1-Fc fusions, while mouse CD300LB, mouse CD300C, mouse CD300D, and mouse CD300E were mouse IgG2a-Fc fusions (R&D Systems). Binding was assessed by injecting each analyte over the entire antibody array using the single channel flow cell. CD300 analytes were diluted to 300 nM or 600 nM in running buffer and injected in series without regeneration. Two or three buffer blanks were run between each mouse or human ortholog, respectively. Data were processed and analyzed using NextGenKIT high-throughput kinetics analysis software (Carterra).

murine CD300E-Fc = target: T2, murine CD300E-Fc (mouse); experiment: SPR (Carterra LSA), antibody immobilised
T2 construct: mouse IgG2a-Fc fusion (R&D Systems); the entry is the whole fusion chain; also called mCD300E; Mouse CD300E-Fc
T2 chain: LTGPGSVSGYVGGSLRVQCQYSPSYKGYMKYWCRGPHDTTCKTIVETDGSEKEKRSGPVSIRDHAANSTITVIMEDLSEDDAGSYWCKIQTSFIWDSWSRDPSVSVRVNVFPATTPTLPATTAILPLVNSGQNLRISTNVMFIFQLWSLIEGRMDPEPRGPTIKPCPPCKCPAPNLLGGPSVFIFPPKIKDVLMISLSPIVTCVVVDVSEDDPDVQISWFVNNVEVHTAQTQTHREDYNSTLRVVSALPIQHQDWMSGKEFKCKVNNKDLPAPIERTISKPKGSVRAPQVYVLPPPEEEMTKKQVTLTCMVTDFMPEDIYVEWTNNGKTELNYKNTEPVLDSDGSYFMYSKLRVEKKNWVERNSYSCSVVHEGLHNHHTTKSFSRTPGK
Description: as §1, §2

murine CD300LB-Fc = target: T3, murine CD300LB-Fc (mouse); experiment: SPR (Carterra LSA), antibody immobilised, Fc fusion at 300 or 600 nM
T3 construct: mouse IgG2a-Fc fusion (R&D Systems); the entry is the whole fusion chain; also called mCD300LB; Mouse CD300LB-Fc
T3 chain: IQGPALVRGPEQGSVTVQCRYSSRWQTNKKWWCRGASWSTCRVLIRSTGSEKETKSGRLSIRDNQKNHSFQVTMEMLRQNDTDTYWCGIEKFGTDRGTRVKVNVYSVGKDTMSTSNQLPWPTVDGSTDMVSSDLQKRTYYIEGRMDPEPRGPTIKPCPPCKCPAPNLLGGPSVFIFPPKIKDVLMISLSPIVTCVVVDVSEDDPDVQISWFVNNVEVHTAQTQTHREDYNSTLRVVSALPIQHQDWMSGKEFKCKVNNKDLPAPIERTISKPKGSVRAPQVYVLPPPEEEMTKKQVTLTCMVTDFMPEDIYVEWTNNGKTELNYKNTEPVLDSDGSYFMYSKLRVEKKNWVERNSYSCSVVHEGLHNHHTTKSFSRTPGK

T1 sequence (chain, as listed by the source limits assumed): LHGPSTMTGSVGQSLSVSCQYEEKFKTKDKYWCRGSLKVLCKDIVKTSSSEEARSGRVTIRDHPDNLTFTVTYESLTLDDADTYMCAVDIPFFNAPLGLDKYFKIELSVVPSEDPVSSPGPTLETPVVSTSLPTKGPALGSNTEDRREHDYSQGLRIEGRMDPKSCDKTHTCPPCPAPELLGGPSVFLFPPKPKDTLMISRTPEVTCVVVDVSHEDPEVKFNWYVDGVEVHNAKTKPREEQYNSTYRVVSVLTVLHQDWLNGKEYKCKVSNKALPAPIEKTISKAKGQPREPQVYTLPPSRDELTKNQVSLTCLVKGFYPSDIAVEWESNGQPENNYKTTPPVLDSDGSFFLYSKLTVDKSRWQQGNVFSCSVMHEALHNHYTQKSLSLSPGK

B1: anti-CD300LB antibody CD-18 (antibody, V domains shown)
VH: DVQLQESGPDLVKPSQSLSLTCTVTGYSITSGYSWHWIRQFPDNKLEWMGYILSRGDTNFNPSLKSRISITRSTSNNQFFLHFNSVTTEDTATYYCARDFFDYWGQGTTLTVSS
VL: DVLMTQTPLSLPVSLGDQASISCRSSQSIVHSNGNTYLEWYLQKPGQSPKLLIYKVSDRFSGVPDRFSGSGSGTDFTLKISRVEAEDLGVYFCFQGSHVPYTFGGGTKLEIK
- binding result (murine CD300A-Fc): no binding (tested: 300 nM or 600 nM)
- binding result (murine CD300E-Fc): no binding (tested: 300 nM or 600 nM)
- SPR binding (control subtracted) (murine CD300LB-Fc): 328

B2: anti-CD300LB antibody CD-10 (antibody, V domains shown)
VH: QVQLQQSGPELVRPGVSVKISCKGSGYTFTDYAMHWVKQSHVRSREWIGVIGTYNGHTNYNQKFKGKATMTVDKSSSTAYLELARLTSEDSAIYYCARSGSYYYSMDYWGQGTSVTVSS
VL: QIVLTQSPAIMSASPGEKVTMTCSASSSVNYMHWYQQKSGTSPKRWIYDTSKLSSGVPARFSGSGSGTSYSLTISTMEAEDAATYYCQQWSSNPPMTFGGGTKLEIK
- binding result (murine CD300A-Fc): no binding (tested: 300 nM or 600 nM)
- binding result (murine CD300E-Fc): no binding (tested: 300 nM or 600 nM)
- SPR binding (control subtracted) (murine CD300LB-Fc): 370

B3: anti-CD300LB antibody CD-16 (antibody, V domains shown)
VH: QIQLVQSGPELKKPGETVKISCKASGYTFTDYSMHWVKQAPGKGLKWMAWINTETGEPTYADDFRGRFAFSLETSGRTAYLEINNLRNEDTATYFCVTYGSSYGMAYWGQGTSVTVSS
VL: DIVLTQSPASLAVSLGQRATISCRASKSVSRSGYSYLHWYQQKPGQPPKLLIYLASKLESGVPARFSGSGSGTDFTLNIHPVEAEDAATYYCQHNREIPPTFGGGTKLEIK
- binding result (murine CD300A-Fc): no binding (tested: 300 nM or 600 nM)
- binding result (murine CD300E-Fc): no binding (tested: 300 nM or 600 nM)
- SPR binding (control subtracted) (murine CD300LB-Fc): 310

B4: anti-CD300LB antibody CD-17 (antibody, V domains shown)
VH: QIQLVQSGPELKKPGETVKISCKASGYTLTDYSMHWVKQAPGKGLKWMGWINTETGEPRYGDDFKGRFAFSLETSASSAYLQINNLKNDDTATYFCATYGRSYGMDFWGQGTSVTVSS
VL: DIVLTQSPASLAVSLGQRATISCRASKSVSPSGHSYMHWYQQKPGQPPKLLIYLASNLKSGVPARFSGSGSGTDFTLNIHPVEEGDAATYYCQHNRELPPTFGGGSKLEIK
- binding result (murine CD300A-Fc): no binding (tested: 300 nM or 600 nM)
- binding result (murine CD300E-Fc): no binding (tested: 300 nM or 600 nM)
- SPR binding (control subtracted) (murine CD300LB-Fc): 11.3
